# Source: PMC7948962, “Wzb of Vibrio vulnificus represents a new group of low-molecular-weight protein tyrosine phosphatases with a unique insertion in the W-loop” (The Journal of Biological Chemistry, 2021)
# Test system: O=[N+]([O-])c1ccc(OP(=O)(O)O)cc1
# Assay: p-nitrophenol release, A405, initial velocity, Michaelis-Menten fit
# Format: biochemical, Escherichia coli
# Conditions: 10 mM HEPES pH 7.5, 150 mM NaCl, 20 °C, 200 nM enzyme
# From the text: p-nitrophenol release, A405, initial velocity, Michaelis-Menten fit on EcWzb
substance,measurement,setting,value
EcWzb (Escherichia coli K-12),Km,,3.48 ± 0.24 mM
same,kcat,,2.84 ± 0.1 s⁻¹
same,kcat/Km,,820 M⁻¹ s⁻¹
EcWzb (Escherichia coli K-12; INS39AAAA),Km,A39_L40insAAAA,2.05 ± 0.10 mM
same,kcat,A39_L40insAAAA,6.09 ± 0.09 s⁻¹
same,kcat/Km,A39_L40insAAAA,2970 M⁻¹ s⁻¹
EcWzb (Escherichia coli K-12; INS39EKSR),Km,A39_L40insEKSR,2.53 ± 0.03 mM
same,kcat,A39_L40insEKSR,9.34 ± 0.1 s⁻¹
same,kcat/Km,A39_L40insEKSR,3690 M⁻¹ s⁻¹
